Numbering of substitutions follows the chain as printed.

In this experiment the target is T1, 人源TNFα重组胞外结构域蛋白 (human, UniProt P01375 57-233).
T1 construct: range 57-233; No purification tag is described; also called 人源重组TNFα蛋白; TNFα蛋白
In words: ELISA of crude VHH extract on coated TNFα, anti-HA-HRP; positive if OD above 5 times the control well. Background: In an ELISA, binding on a coated surface is turned into a signal by an enzyme label.

T1 sequence (P01375 57-233 limits assumed): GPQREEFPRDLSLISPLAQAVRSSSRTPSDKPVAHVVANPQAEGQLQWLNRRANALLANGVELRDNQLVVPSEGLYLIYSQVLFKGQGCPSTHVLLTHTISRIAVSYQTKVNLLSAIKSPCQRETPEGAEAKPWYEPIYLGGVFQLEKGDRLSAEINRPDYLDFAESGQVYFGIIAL

B1: 单域抗体1E9 (VHH)
VHH: ESGGGSVQSGGSLRLSCTVFGATFNGHAMAWFRQAPGKDREGVSCISMSGRSTAYADSVKGRFTISRDNAKNTLYLQMNGLKPEDTAMYYCAAAAFGYCSGPWSSSHGEYMYWGQGTQVTVSS
notes: Crude extract from E. coli TG1 clones (pMECS), detected through an HA tag
In the case of B1, the binding result is “binds”.

B2: 单域抗体1H10 (VHH)
VHH: B1 VHH with S6L, S9A
notes: as for B1
Take B2: the binding result is listed as “binds”.

B3: 单域抗体4A5 (VHH)
VHH: ESGGGLVQPGGSLRLSCTVSGLTFNDYALAWFRQAPGKDREGVSCISWSGGSTAYADSVKGRFTISRDNAKNTVYLQMNSLKPEDTAMYYCAAPAFRYCSGPWSSSHGEYIYWGQGTQVTVSS
notes: as for B1
In the case of B3, the binding result was “binds”.

B4: 单域抗体2B1 (VHH)
VHH: ESGGGSVQSGGSLRLSCQASGYTSSSYCMGWFRQVPGKEREGVASIDSGGFTHTANSVKGRFTISQDNAKNTLYLQMNSLKPEDTAMYYCAATPREFGWCSLSGHFNYWGQGTQVTVSS
notes: as for B1
For B4, the binding result was “binds”.

B5: 单域抗体2B8 (VHH)
VHH: ESGGGSVQAGGSLRLSCAASGYTFSTYCMAWFRQAPGEEREGVAYIDTDGSTGHADSVRGRFTVSRDNAKNTLYLQMNSLKPEDTAIYYCAARWTRLCGWWSYPTGSWGQGTQVTVSS
notes: as for B1
As for B5, the binding result is reported as “binds”.

(Values after patent CN114591432A (NANJING FUJIEKANG BIOTECHNOLOGY CO LTD, dated 2022).)
